From the RNAGym collection of RNA variant scans (doi:10.1101/gr.219683.116)

B1: mRNA-splicing (parent)
chain: AGUUGCUGCUGGGAGCUCCAGCACAGUGAAAUGGACAGAAGGGCAGAGCAA

Variants of: B1
Test: exon inclusion enrichment index; higher = more inclusion; WT1 exon 5 minigene, HEK293

**Q.** For AGUUGAAGAAGGGAGCUCCAGCGGAGUGAAAUGGACAGAAGGGCAGAGCAA [C6A U7A C9A U10A A23G C24G], which “exon inclusion enrichment index” value is on record?
**A.** 1.58

**Q.** For AGUUGAAGAAGGGAGCUCCAGCGUAGUGAAAUGGACAGAAGGGCAGAGCAA [C6A U7A C9A U10A A23G C24U], which “exon inclusion enrichment index” value is on record?
**A.** 0.189

**Q.** With AGUUGAAGAAGGGAGCUCCAGCGAAGUGAAAUGGACAGAAGGGCAGAGCAA [C6A U7A C9A U10A A23G C24A] as the variant, how does the “exon inclusion enrichment index” value read?
**A.** 1.85

**Q.** For AGUUGAAGAAGGGCGCUCCAGCACAGUGAAAUGGACAGAAGGGCAGAGCAA [C6A U7A C9A U10A A14C], which “exon inclusion enrichment index” value is on record?
**A.** 0.774

**Q.** For AGUUGAAGAAGGGUGCUCCAGCACAGUGAAAUGGACAGAAGGGCAGAGCAA [C6A U7A C9A U10A A14U], which “exon inclusion enrichment index” value is on record?
**A.** 0.301

**Q.** With AGUUGAAGAAGGGGGCUCCAGCACAGUGAAAUGGACAGAAGGGCAGAGCAA [C6A U7A C9A U10A A14G] as the variant, how does the “exon inclusion enrichment index” value read?
**A.** 0.618

**Q.** Which “exon inclusion enrichment index” value does the source give for AGUUGAAGAAGGGAGCUCCAGCACAGUGAUUUGGACAGAAGGGCAGAGCAA [C6A U7A C9A U10A A30U A31U] here?
**A.** 0.426

**Q.** With AGUUGAAGAAGGGAGCUCCAGCACAGUGAUGUGGACAGAAGGGCAGAGCAA [C6A U7A C9A U10A A30U A31G] as the variant, how does the “exon inclusion enrichment index” value read?
**A.** 0.653

**Q.** With AGUUGAAGAAGGGAGCUCCAGCACAGUGAUCUGGACAGAAGGGCAGAGCAA [C6A U7A C9A U10A A30U A31C] as the variant, how does the “exon inclusion enrichment index” value read?
**A.** 0.579

**Q.** For AGUUGAAGAAGGGAGCUCCUGCACAGUGAAAUGGACAGAAGGGCAGAGCAA [C6A U7A C9A U10A A20U], which “exon inclusion enrichment index” value is on record?
**A.** 0.829

**Q.** For AGUUGAAGAAGGGAGCUCCCGCACAGUGAAAUGGACAGAAGGGCAGAGCAA [C6A U7A C9A U10A A20C], which “exon inclusion enrichment index” value is on record?
**A.** 0.58

**Q.** With AGUUGAAGAAGGGAGCUCCGGCACAGUGAAAUGGACAGAAGGGCAGAGCAA [C6A U7A C9A U10A A20G] as the variant, how does the “exon inclusion enrichment index” value read?
**A.** 1.05

**Q.** For AGUUGAAGAAGGGAGCUCCAGCACAGUGAAAUGGCUAGAAGGGCAGAGCAA [C6A U7A C9A U10A A35C C36U], which “exon inclusion enrichment index” value is on record?
**A.** 0.0347

**Q.** With AGUUGAAGAAGGGAGCUCCAGCACAGUGAAAUGGCAAGAAGGGCAGAGCAA [C6A U7A C9A U10A A35C C36A] as the variant, how does the “exon inclusion enrichment index” value read?
**A.** 0.329

**Q.** Which “exon inclusion enrichment index” value does the source give for AGUUGAAGAAGGGAGCUCCAGCACAGUGAAAUGGCGAGAAGGGCAGAGCAA [C6A U7A C9A U10A A35C C36G] here?
**A.** 0.657

**Q.** With AGUUGAUUUUGGGAGCUCCAGCACAGUGAAAUGGACAGAAGGGCAGAGCAA [C6A G8U C9U] as the variant, how does the “exon inclusion enrichment index” value read?
**A.** 0.134

**Q.** Which “exon inclusion enrichment index” value does the source give for AGUUGAAGAAGGGCACUCCAGCACAGUGAAAUGGACAGAAGGGCAGAGCAA [C6A U7A C9A U10A A14C G15A] here?
**A.** 0.473

**Q.** For AGUUGAAGAAGGGCCCUCCAGCACAGUGAAAUGGACAGAAGGGCAGAGCAA [C6A U7A C9A U10A A14C G15C], which “exon inclusion enrichment index” value is on record?
**A.** 0.452

**Q.** Which “exon inclusion enrichment index” value does the source give for AGUUGAAGAAGGGCUCUCCAGCACAGUGAAAUGGACAGAAGGGCAGAGCAA [C6A U7A C9A U10A A14C G15U] here?
**A.** 0.408

**Q.** Which “exon inclusion enrichment index” value does the source give for AGUUGAAGAAGGGUACUCCAGCACAGUGAAAUGGACAGAAGGGCAGAGCAA [C6A U7A C9A U10A A14U G15A] here?
**A.** 0.217

**Q.** For AGUUGAAGAAGGGUCCUCCAGCACAGUGAAAUGGACAGAAGGGCAGAGCAA [C6A U7A C9A U10A A14U G15C], which “exon inclusion enrichment index” value is on record?
**A.** 0.336

**Q.** With AGUUGAAGAAGGGUUCUCCAGCACAGUGAAAUGGACAGAAGGGCAGAGCAA [C6A U7A C9A U10A A14U G15U] as the variant, how does the “exon inclusion enrichment index” value read?
**A.** 0.295

**Q.** With AGUUGAAGAAGGGAGCUCCAGCCAAGUGAAAUGGACAGAAGGGCAGAGCAA [C6A U7A C9A U10A A23C C24A] as the variant, how does the “exon inclusion enrichment index” value read?
**A.** 0.907

**Q.** For AGUUGAAGAAGGGAGCUCCAGCCGAGUGAAAUGGACAGAAGGGCAGAGCAA [C6A U7A C9A U10A A23C C24G], which “exon inclusion enrichment index” value is on record?
**A.** 1.83

**Q.** For AGUUGAAGAAGGGAGCUCCAGCCUAGUGAAAUGGACAGAAGGGCAGAGCAA [C6A U7A C9A U10A A23C C24U], which “exon inclusion enrichment index” value is on record?
**A.** 0.243

**Q.** Which “exon inclusion enrichment index” value does the source give for AGUUGAAGAAGGGAGCUCCAGCACUUUGAAAUGGACAGAAGGGCAGAGCAA [C6A U7A C9A U10A A25U G26U] here?
**A.** 0.734

**Q.** With AGUUGAAGAAGGGAGCUCCAGCACUCUGAAAUGGACAGAAGGGCAGAGCAA [C6A U7A C9A U10A A25U G26C] as the variant, how does the “exon inclusion enrichment index” value read?
**A.** 0.956

**Q.** With AGUUGAAGAAGGGAGCUCCAGCACUAUGAAAUGGACAGAAGGGCAGAGCAA [C6A U7A C9A U10A A25U G26A] as the variant, how does the “exon inclusion enrichment index” value read?
**A.** 0.899

**Q.** For AGUUGAAGAAGGGAGCUCCGUCACAGUGAAAUGGACAGAAGGGCAGAGCAA [C6A U7A C9A U10A A20G G21U], which “exon inclusion enrichment index” value is on record?
**A.** 0.779

**Q.** Which “exon inclusion enrichment index” value does the source give for AGUUGAAGAAGGGAGCUCCGCCACAGUGAAAUGGACAGAAGGGCAGAGCAA [C6A U7A C9A U10A A20G G21C] here?
**A.** 0.891

**Q.** Which “exon inclusion enrichment index” value does the source give for AGUUGAAGAAGGGAGCUCCGACACAGUGAAAUGGACAGAAGGGCAGAGCAA [C6A U7A C9A U10A A20G G21A] here?
**A.** 1.2

**Q.** For AGUUGAAGAAGGGAGCUCCAGCACAGUGCGAUGGACAGAAGGGCAGAGCAA [C6A U7A C9A U10A A29C A30G], which “exon inclusion enrichment index” value is on record?
**A.** 1.51

**Q.** For AGUUGAAGAAGGGAGCUCCAGCACAGUGCCAUGGACAGAAGGGCAGAGCAA [C6A U7A C9A U10A A29C A30C], which “exon inclusion enrichment index” value is on record?
**A.** 1.17

**Q.** With AGUUGAAGAAGGGAGCUCCAGCACAGUGCUAUGGACAGAAGGGCAGAGCAA [C6A U7A C9A U10A A29C A30U] as the variant, how does the “exon inclusion enrichment index” value read?
**A.** 0.34

**Q.** With AGUUGAAGAAGGGAGCUCCAGCACAGUGAGGUGGACAGAAGGGCAGAGCAA [C6A U7A C9A U10A A30G A31G] as the variant, how does the “exon inclusion enrichment index” value read?
**A.** 0.168

**Q.** Which “exon inclusion enrichment index” value does the source give for AGUUGAAGAAGGGAGCUCCAGCACAGUGAGCUGGACAGAAGGGCAGAGCAA [C6A U7A C9A U10A A30G A31C] here?
**A.** 0.0339

**Q.** Which “exon inclusion enrichment index” value does the source give for AGUUGAAGAAGGGAGCUCCAGCACAGUGAGUUGGACAGAAGGGCAGAGCAA [C6A U7A C9A U10A A30G A31U] here?
**A.** 0.133

**Q.** With AGUUGAAGAAGGGAGCUCCAGCACCAUGAAAUGGACAGAAGGGCAGAGCAA [C6A U7A C9A U10A A25C G26A] as the variant, how does the “exon inclusion enrichment index” value read?
**A.** 1.67

**Q.** With AGUUGAAGAAGGGAGCUCCAGCACCCUGAAAUGGACAGAAGGGCAGAGCAA [C6A U7A C9A U10A A25C G26C] as the variant, how does the “exon inclusion enrichment index” value read?
**A.** 1.25

**Q.** Which “exon inclusion enrichment index” value does the source give for AGUUGAAGAAGGGAGCUCCAGCACCUUGAAAUGGACAGAAGGGCAGAGCAA [C6A U7A C9A U10A A25C G26U] here?
**A.** 1.21

**Q.** Which “exon inclusion enrichment index” value does the source give for AGUUGAAGAAGGGAGCUCCAGCACAGUGGUAUGGACAGAAGGGCAGAGCAA [C6A U7A C9A U10A A29G A30U] here?
**A.** 0.163

**Q.** For AGUUGAAGAAGGGAGCUCCAGCACAGUGGGAUGGACAGAAGGGCAGAGCAA [C6A U7A C9A U10A A29G A30G], which “exon inclusion enrichment index” value is on record?
**A.** 0.495

**Q.** Which “exon inclusion enrichment index” value does the source give for AGUUGAAGAAGGGAGCUCCAGCACAGUGGCAUGGACAGAAGGGCAGAGCAA [C6A U7A C9A U10A A29G A30C] here?
**A.** 0.273

**Q.** For AGUUGAAGAAGGGAGCUCCAGCACAGUGAAGAGGACAGAAGGGCAGAGCAA [C6A U7A C9A U10A A31G U32A], which “exon inclusion enrichment index” value is on record?
**A.** 2.95

**Q.** With AGUUGAAGAAGGGAGCUCCAGCACAGUGAAGGGGACAGAAGGGCAGAGCAA [C6A U7A C9A U10A A31G U32G] as the variant, how does the “exon inclusion enrichment index” value read?
**A.** 0.383

**Q.** Which “exon inclusion enrichment index” value does the source give for AGUUGAAGAAGGGAGCUCCAGCACAGUGAAGCGGACAGAAGGGCAGAGCAA [C6A U7A C9A U10A A31G U32C] here?
**A.** 2.27

**Q.** With AGUUGAAGAAGGGAGCUCCAGCACAGUGCAAUGGACAGAAGGGCAGAGCAA [C6A U7A C9A U10A A29C] as the variant, how does the “exon inclusion enrichment index” value read?
**A.** 0.513

**Q.** With AGUUGAAGAAGGGAGCUCCAGCACAGUGUAAUGGACAGAAGGGCAGAGCAA [C6A U7A C9A U10A A29U] as the variant, how does the “exon inclusion enrichment index” value read?
**A.** 0.131

**Q.** With AGUUGAAGAAGGGAGCUCCAGCACAGUGGAAUGGACAGAAGGGCAGAGCAA [C6A U7A C9A U10A A29G] as the variant, how does the “exon inclusion enrichment index” value read?
**A.** 1.06

**Q.** For AGUUGAAGAAGGGAGCUCCAGCACAGUGAAAUGGCCAGAAGGGCAGAGCAA [C6A U7A C9A U10A A35C], which “exon inclusion enrichment index” value is on record?
**A.** 0.237

**Q.** For AGUUGAAGAAGGGAGCUCCAGCACAGUGAAAUGGGCAGAAGGGCAGAGCAA [C6A U7A C9A U10A A35G], which “exon inclusion enrichment index” value is on record?
**A.** 0.217
